Earlier results in publication PMC10453832.
pKd: −log10 of the molar value.

Molecular target: F-actin (Oryctolagus cuniculus) (UniProt P68135)

pKd: 7.12
Substance: β-III-spectrin ABD (from UniProt O15020)
